B1: Ras-related protein Rab-7L1 (Homo sapiens), O14966 (parent)
chain: MGSRDHLFKVLVVGDAAVGKTSLVQRYSQDSFSKHYKSTVGVDFALKVLQWSDYEIVRLQLWDIAGQERFTSMTRLYYRDASACVIMFDVTNATTFSNSQRWKQDLDSKLTLPNGEPVPCLLLANKCDLSPWAVSRDQIDRFSKENGFTGWTETSVKENKNINEAMRVLIEKMMRNSTEDIMSLSTQGDYINLQTKSSSWSCC
B2: BAG family molecular chaperone regulator 5 (Homo sapiens), Q9UL15 (parent)
chain: MDMGNQHPSISRLQEIQKEVKSVEQQVIGFSGLSDDKNYKKLERILTKQLFEIDSVDTEGKGDIQQARKRAAQETERLLKELEQNANHPHRIEIQNIFEEAQSLVREKIVPFYNGGNCVTDEFEEGIQDIILRLTHVKTGGKISLRKARYHTLTKICAVQEIIEDCMKKQPSLPLSEDAHPSVAKINFVMCEVNKARGVLIALLMGVNNNETCRHLSCVLSGLIADLDALDVCGRTEIRNYRREVVEDINKLLKYLDLEEEADTTKAFDLRQNHSILKIEKVLKRMREIKNELLQAQNPSELYLSSKTELQGLIGQLDEVSLEKNPCIREARRRAVIEVQTLITYIDLKEALEKRKLFACEEHPSHKAVWNVLGNLSEIQGEVLSFDGNRTDKNYIRLEELLTKQLLALDAVDPQGEEKCKAARKQAVRLAQNILSYLDLKSDEWEY

Variants of: B1
Conditions: with lrrk2_human LRRK2, Q5S007
Chain of lrrk2_human LRRK2, Q5S007 (Q5S007 whole entry): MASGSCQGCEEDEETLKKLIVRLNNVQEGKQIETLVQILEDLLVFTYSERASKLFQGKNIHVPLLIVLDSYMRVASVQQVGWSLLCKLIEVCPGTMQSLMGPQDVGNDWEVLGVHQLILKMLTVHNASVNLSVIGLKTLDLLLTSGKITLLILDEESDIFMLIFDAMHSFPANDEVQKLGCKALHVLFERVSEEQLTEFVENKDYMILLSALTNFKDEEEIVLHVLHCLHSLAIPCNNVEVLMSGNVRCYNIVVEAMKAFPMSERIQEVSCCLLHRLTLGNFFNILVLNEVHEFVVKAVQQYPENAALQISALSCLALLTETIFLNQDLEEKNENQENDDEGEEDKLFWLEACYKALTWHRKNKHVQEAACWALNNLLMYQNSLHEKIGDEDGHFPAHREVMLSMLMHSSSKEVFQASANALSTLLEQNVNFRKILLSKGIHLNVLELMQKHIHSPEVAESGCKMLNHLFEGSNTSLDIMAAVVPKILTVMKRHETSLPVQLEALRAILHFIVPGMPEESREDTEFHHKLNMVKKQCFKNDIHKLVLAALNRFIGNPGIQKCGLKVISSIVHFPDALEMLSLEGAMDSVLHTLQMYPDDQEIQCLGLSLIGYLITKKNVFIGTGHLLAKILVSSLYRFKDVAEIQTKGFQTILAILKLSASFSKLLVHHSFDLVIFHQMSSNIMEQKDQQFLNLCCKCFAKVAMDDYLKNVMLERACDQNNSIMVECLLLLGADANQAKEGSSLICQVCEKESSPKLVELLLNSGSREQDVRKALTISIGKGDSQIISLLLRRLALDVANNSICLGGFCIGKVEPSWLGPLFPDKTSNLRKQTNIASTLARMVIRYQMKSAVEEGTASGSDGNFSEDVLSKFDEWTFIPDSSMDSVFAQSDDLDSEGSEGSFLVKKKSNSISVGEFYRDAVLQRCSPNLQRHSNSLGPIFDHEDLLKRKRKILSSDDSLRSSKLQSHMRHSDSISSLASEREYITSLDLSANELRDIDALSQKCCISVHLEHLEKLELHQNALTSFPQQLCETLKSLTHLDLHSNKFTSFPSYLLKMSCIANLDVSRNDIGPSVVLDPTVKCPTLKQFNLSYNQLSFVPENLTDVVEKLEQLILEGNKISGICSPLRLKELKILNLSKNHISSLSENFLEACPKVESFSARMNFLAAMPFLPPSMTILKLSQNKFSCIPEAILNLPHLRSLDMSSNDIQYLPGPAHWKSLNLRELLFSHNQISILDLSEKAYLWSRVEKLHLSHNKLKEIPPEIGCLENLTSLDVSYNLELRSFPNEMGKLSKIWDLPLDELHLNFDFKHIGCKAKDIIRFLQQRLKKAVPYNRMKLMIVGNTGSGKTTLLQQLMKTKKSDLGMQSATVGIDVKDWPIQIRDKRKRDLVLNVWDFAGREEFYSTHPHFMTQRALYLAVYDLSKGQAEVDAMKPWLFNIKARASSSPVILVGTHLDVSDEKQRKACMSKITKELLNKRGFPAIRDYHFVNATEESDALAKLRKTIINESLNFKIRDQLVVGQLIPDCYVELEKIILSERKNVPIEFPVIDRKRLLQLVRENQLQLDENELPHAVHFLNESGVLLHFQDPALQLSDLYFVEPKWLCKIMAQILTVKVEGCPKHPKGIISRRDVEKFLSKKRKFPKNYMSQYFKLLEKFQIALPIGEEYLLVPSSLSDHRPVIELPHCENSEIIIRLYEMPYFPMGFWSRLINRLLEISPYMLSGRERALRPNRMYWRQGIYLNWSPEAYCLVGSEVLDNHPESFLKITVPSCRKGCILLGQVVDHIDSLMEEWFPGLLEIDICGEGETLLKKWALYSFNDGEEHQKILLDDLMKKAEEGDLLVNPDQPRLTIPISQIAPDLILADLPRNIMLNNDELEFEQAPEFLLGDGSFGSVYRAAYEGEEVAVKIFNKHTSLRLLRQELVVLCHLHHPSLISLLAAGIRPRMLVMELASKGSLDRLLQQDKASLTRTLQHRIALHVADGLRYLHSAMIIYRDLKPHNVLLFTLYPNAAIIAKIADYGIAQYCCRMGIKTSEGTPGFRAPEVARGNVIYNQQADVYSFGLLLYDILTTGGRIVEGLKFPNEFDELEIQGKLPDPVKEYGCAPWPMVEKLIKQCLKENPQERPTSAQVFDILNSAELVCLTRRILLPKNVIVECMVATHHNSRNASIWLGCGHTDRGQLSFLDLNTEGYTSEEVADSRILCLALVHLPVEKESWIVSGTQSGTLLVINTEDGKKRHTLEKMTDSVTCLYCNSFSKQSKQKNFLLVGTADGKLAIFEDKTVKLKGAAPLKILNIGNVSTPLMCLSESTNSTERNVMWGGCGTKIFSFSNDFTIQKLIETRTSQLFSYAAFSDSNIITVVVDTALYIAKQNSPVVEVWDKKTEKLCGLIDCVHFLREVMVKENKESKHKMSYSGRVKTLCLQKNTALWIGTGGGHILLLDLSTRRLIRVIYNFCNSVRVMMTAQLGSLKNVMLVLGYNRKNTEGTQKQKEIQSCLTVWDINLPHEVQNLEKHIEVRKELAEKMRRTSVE

| effect of a mutation on the interaction | Variant |
| --- | --- |
| increasing interaction | Q67L |
| increasing interaction | T21N |

Variants of: B1
Conditions: with lrrk2_human LRRK2, Q5S007
Remark: another data set of the same source

| effect of a mutation on the interaction | Variant |
| --- | --- |
| disrupting interaction | Q67L |

Variants of: B2
Conditions: with lrrk2_human LRRK2, Q5S007

| effect of a mutation on the interaction | Variant |
| --- | --- |
| decreasing interaction | D54A;R68A;D228A;R242A;D318A;R332A;D410A;R424A |

Source: IntAct's records for PubMed 24510904
